Assay: Screening of lysates for retained lysine decarboxylase activity after heat treatment at 65° C.
Type: biochemical, Escherichia coli
Conditions: lysate incubated at 65° C. for 2 hours, then reacted at 37° C. for 40 minutes
Description: A colony of each transformant in which the mutated lysine decarboxylase had been introduced was picked up, inoculated to 1 mL of the LB medium containing 100 μg/mL of ampicillin, and cultured at 30° C. for 24 hours. 18 μL of 100 mM 2-(N-morpholino) ethanesulfonic acid (MES)-NaOH buffer (pH6.0) and 2.7 μL of FastBreak cell lysis reagent (Promega) were added to 10 μL of this cultured medium, which was then incubated at 37° C. for 30 minutes to lyse the microbial cells. Then, this lysate solution was heated up to 65° C. and incubated for 2 hours. After this heat treatment, 190 μL of a reaction solution (pH 5.5) containing 10 g/L of lysine hydrochloride, 21.3 g/L (100 mM) of MES, 26.5 mg/L of Pyridoxal-5′-phosphate (PLP) and 20 mg/L of Bromocresol purple was added and reacted at 37° C. for 40 minutes. […] More abundant formation of 1,5-PD and retention of activity as compared to bacteria expressing the wild-type enzyme after treating with heat under the above conditions were used as an indicator. Three candidate strains expressing CadA having improved thermal stability were obtained using this indicator. These transformants of E. coli JM109 strain were designated as CadA231, CadA232 and CadA233, respectively.

B1: pCadA220: wild-type lysine decarboxylase (CadA) derived from Escherichia coli W3110, expressed from plasmid pCadA220 (protein, UniProt P0A9H3 1-715, looked up)
Inducible lysine decarboxylase: MNVIAILNHMGVYFKEEPIRELHRALERLNFQIVYPNDRDDLLKLIENNARLCGVIFDWDKYNLELCEEISKMNENLPLYAFANTYSTLDVSLNDLRLQISFFEYALGAAEDIANKIKQTTDEYINTILPPLTKALFKYVREGKYTFCTPGHMGGTAFQKSPVGSLFYDFFGPNTMKSDISISVSELGSLLDHSGPHKEAEQYIARVFNADRSYMVTNGTSTANKIVGMYSAPAGSTILIDRNCHKSLTHLMMMSDVTPIYFRPTRNAYGILGGIPQSEFQHATIAKRVKETPNATWPVHAVITNSTYDGLLYNTDFIKKTLDVKSIHFDSAWVPYTNFSPIYEGKCGMSGGRVEGKVIYETQSTHKLLAAFSQASMIHVKGDVNEETFNEAYMMHTTTSPHYGIVASTETAAAMMKGNAGKRLINGSIERAIKFRKEIKRLRTESDGWFFDVWQPDHIDTTECWPLRSDSTWHGFKNIDNEHMYLDPIKVTLLTPGMEKDGTMSDFGIPASIVAKYLDEHGIVVEKTGPYNLLFLFSIGIDKTKALSLLRALTDFKRAFDLNLRVKNMLPSLYREDPEFYENMRIQELAQNIHKLIVHHNLPDLMYRAFEVLPTMVMTPYAAFQKELHGMTEEVYLDEMVGRINANMILPYPPGVPLVMPGEMITEESRPVLEFLQMLCEIGAHYPGFETDIHGAYRQADGRYTVKVLKEESKK
For B1, the “activity after heat treatment of lysate” value was “inactivated”.

From patent US10358638B2, “Method of producing 1,5-pentadiamine using lysine decarboxylase mutant having improved thermal stability” (AJINOMOTO CO., INC., priority 2014, dated 2019)
